In assay [1] the target is T1, Mouse VEGF-A-121 (mouse, UniProt Q00731-3 27-146).
T1 construct: also called mouse VEGF-A121-His; not shown: His tag
T1 sequence (looked up): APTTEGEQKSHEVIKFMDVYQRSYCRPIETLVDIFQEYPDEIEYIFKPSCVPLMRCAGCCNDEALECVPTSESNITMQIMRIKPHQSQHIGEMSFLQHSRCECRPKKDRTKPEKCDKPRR
Description: SPR crossreactivity set-up, VEGF-A121-His captured by anti-His antibody, Fab injected, single cycle kinetics. As to the method:
An anti-His capturing antibody (GE Healthcare 28995056) was immobilized to a Series S Sensor Chip C1 (GE Healthcare BR100535) using standard amine coupling chemistry resulting in a surface density of approximately 600 resonance units (RU). As running and dilution buffer, HBS-P+ (10 mM HEPES, 150 mM NaCl pH 7.4, 0.05% Surfactant P20) was used. […] A dilution series of the tested antibody (3.7-300 nM, 1:3 dilution) was successively injected for 60 s each, dissociation was monitored for 3600 s at a flow rate of 30 μl/min (single cycle kinetics). The surface was regenerated by injecting 10 mM Glycine pH 1.5 for 60 s at a flow of 5 μl/min. […] Curve fitting was performed using the 1:1 Langmuir binding model within the Biacore® evaluation software.
(§1) Crossreactivity to VEGF-A and ANG2 from other species was assessed as described above in “Materials & general methods” section.

Assay [2] deals with T2, Mouse ANG2 (mouse, UniProt O35608 275-496, limits assumed).
T2 construct: domain: RBD; also called mouse Ang2-RBD
T2 sequence (looked up): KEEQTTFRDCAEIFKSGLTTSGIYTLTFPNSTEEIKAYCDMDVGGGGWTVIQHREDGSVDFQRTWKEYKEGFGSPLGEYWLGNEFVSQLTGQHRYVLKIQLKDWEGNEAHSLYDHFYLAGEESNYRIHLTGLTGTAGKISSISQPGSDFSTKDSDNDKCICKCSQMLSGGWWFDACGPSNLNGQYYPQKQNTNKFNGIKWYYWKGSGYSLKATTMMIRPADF
Description: SPR crossreactivity set-up, Fab captured by anti-Fab antibody, Ang2-RBD injected, 25 C. As for the experimental part: (§2) An anti-Fab capturing antibody (GE Healthcare 28958325) was immobilized to a Series S Sensor Chip C1 (GE Healthcare BR100535) using standard amine coupling chemistry resulting in a surface density of approximately 800 resonance units (RU). As running and dilution buffer, HBS-P+ (10 mM HEPES, 150 mM NaCl pH 7.4, 0.05% Surfactant P20) was used, the temperature of measurement was 25° C. The tested antibody was captured by injecting a 50 nM solution for 60 sec at a flow of 5 μl/min. Association was measured by injection of Ang2-RBD from the indicated species in various concentrations in solution for 180 sec at a flow of 30 μl/min (0.07 nM-50 nM, 1:3 dilution). The dissociation phase was monitored for up to 600 sec and triggered by switching from the sample solution to running buffer at a flow rate of 30 μl/min. The surface was regenerated by injection of 10 mM Glycine pH 2.1 for 60 s at a flow rate of 30 μl/min. Bulk refractive index differences were corrected by subtracting blank injections and by subtracting the response obtained from the reference flow cell without captured antibody. Curve fitting was performed using the 1:1 Langmuir binding model within the Biacore® evaluation software.
as §1

Assay [3] addresses T3, Pig ANG2 (pig, UniProt Q9BDY7 275-496, limits assumed).
T3 construct: domain: RBD; also called pig Ang2-RBD
T3 sequence (looked up): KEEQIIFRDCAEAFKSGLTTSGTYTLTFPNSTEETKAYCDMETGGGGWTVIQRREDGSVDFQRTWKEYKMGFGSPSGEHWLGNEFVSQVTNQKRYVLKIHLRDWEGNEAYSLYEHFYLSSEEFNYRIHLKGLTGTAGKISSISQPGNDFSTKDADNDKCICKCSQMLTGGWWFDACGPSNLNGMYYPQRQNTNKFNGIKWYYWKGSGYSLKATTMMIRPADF
The assay is described as above. As to the method:
as §2, §1

For assay [4], the target named is T4, Rabbit ANG2 (rabbit, UniProt G1T9B3 281-496).
T4 construct: domain: RBD; also called rabbit Ang2-RBD
T4 sequence: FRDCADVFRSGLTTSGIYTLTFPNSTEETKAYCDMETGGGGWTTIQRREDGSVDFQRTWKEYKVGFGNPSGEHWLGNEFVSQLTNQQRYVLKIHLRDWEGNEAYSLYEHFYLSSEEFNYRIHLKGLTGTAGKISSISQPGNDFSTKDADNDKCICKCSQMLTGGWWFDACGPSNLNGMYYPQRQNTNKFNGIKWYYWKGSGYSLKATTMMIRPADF
The assay is described as above. As for the experimental part: as §2, §1

Assay [5] addresses T5, human Ang2-RBD (human, UniProt O15123 275-496, limits assumed).
T5 construct: also called Human ANG2 (SPR); Angiopoietin 2-RBD
T5 sequence: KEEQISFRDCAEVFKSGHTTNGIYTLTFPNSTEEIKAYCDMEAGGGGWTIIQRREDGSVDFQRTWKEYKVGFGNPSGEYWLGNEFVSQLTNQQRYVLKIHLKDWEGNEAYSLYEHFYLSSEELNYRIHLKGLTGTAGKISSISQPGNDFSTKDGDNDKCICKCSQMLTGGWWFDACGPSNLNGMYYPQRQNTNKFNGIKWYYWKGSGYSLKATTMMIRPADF
The assay is described as above. As for the experimental part:
as §2, §1

Assay [6] deals with T6, Cyno ANG2 (cyno, UniProt A0A2K5VNX6 281-496).
T6 construct: domain: RBD; also called cyno Ang2-RBD
T6 sequence: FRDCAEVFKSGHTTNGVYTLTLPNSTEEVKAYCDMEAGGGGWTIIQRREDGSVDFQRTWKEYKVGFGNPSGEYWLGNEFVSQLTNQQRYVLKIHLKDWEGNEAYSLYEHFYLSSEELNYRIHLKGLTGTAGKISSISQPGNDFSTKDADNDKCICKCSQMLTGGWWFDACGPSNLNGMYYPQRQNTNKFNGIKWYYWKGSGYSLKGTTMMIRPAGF
The description is as above. As to the method: as §2, §1

B1: bispecific anti-VEGF-A/anti-ANG2 Fab fragment P1AD9820 (Fab, V domains shown)
VH: SEHLVESGGGLVKPGGSLRLSCATADFFEYDDMSWVRQAPGKGLEWVGSISPKGDHKYLNTKFIGRFTISRDDSKNTLYLQMNSLRAEDTAVYYCARDVGFFDWWGQGTLVTVSS
VL: AIYMHQEPSSLSASVGDRVTITCHGSYWLNSEVAWYQQKPGKAPKLLIFDGDFKVYEVPSRFSGSGSHEDYTLTISSLQPEDFATYYCQQYRYHPYTFGHGTKVEIKR
notes: Bispecific Fab with two paratopes in one VH/VL pair; also called P1AD9820 Fab
Regarding B1, the Kd (in general, a measure of binding affinity in units of concentration) in assay [1] came out at 368 pM; in assay [2], 92 pM; in assay [3] it was 13 pM; in assay [4], 5 pM; in assay [5] it was 3 pM; in assay [6], 2 pM. The koff (usually the first-order rate constant of dissociation) in assay [1] amounted to 0.000183 s⁻¹; in assay [2], 0.000743 s⁻¹; in assay [3], 0.000105 s⁻¹; in assay [4] it was 5.33e-05 s⁻¹; in assay [5], 2.64e-05 s⁻¹; in assay [6] it was 1.56e-05 s⁻¹. Moreover, the kon (as a rule, the second-order rate constant of association) came to 497000 M⁻¹ s⁻¹ in assay [1]; 8.11e+06 M⁻¹ s⁻¹ in assay [2]; 7.82e+06 M⁻¹ s⁻¹ in assay [3]; 9.91e+06 M⁻¹ s⁻¹ in assay [4]; 1.02e+07 M⁻¹ s⁻¹ in assay [5]; 9.98e+06 M⁻¹ s⁻¹ in assay [6]. Also, the “t1/2” value stood at 1.05 h in assay [1]; 0.267 h in assay [2]; 1.83 h in assay [3]; 3.62 h in assay [4]; 7.28 h in assay [5]; 12.3 h in assay [6].

(Values after patent US20220073599A1 (Hoffmann-La Roche, published 2022).)
